Assay results published in patent publication US6274134A, “Human cell adhesion protein AAMP-1 and uses thereof” (National Institutes of Health, priority 1993, dated 2001).

Test: H3-heparin binding assay, recombinant AAMP blotted onto Immobilon-P
Conditions: tritiated heparin 2.5 U/mL
Experimental: Heparin binding assays utilizing competition of tritiated heparin (heparin sodium salt, [^3 H(G)]-, NEN DuPont), with unlabeled heparin, were performed for recombinant AAMP, solubilized P189 (immobilized on CovaLink™ plates), and for aggregated P189 in 0.1% BSA-DMEM solutions. Recombinant AAMP in bacterial lysate and bovine serum albumin in equal amounts were electrophoresed for gel purification, and blotted onto Immobilon-P™. These blots were incubated 3 hours with tritiated heparin, 2.5 U/mL (10.7 uCi/mL) at room temperature, alone and with increasing amounts of unlabeled heparin (0.125-0.25 U/mL) for competition. Following 3 washes, the bands of AAMP recombinant protein and BSA (triplicates for each heparin concentration) were cut from the blotted Immobilon P strips, placed in scintillation vials, and counted for comparisons. Solubilized P189 (6.25 ug/mL) was immobilized on CovaLink™ plates, as described previously, and incubated one hour at room temperature with tritiated heparin, […] (0.213 uCi/mL), alone and with increasing amounts of unlabeled heparin (50-500 U/mL) for competition. Following three washes, the plate wells, in duplicates or triplicates for each heparin concentration, were placed in scintillation vials and counted. In separate assays, aggregates of P189 (200 ug/mL in 0.1% BSA-DMEM) were incubated one hour on a rocker at room temperature with tritiated heparin (0.05 U/mL) alone and with increasing amounts of unlabeled heparin (0.05-5 U/mL) for competition. Following centrifugation,the precipitate was washed with 0.1% BSA-DMEM, centrifuged again, and then transferred to scintillation vials for counting. The background cpm/umole protein levels for assays with AAMP recombinant protein competed with unlabeled heparin, were standardized to AAMP recombinant protein's average background cpm/umole protein with no labeled heparin present.

B1: Recombinant AAMP: Recombinant human cell adhesion protein AAMP, gel purified from bacterial lysate (SEQ ID NO:7) (protein)
chain: GPEKWIRRLRRMESESESGAAADTPPLETLSFHGDEEIIEVVELDPGPPDPDDLAQEMEDVDFEEEEEEEGNEEGWVLEPQEGVVGSMEGPDDSEVTFALHSASVFCVSLDPKTNTLAVTGGEDDKAFVWRLSDGELLFECAGHKDSVTCAGFSHDSTLVATGDMSGLLKVWQVDTKEEVWSFEAGDLEWMEWHPRAPVLLAGTADGNTWMWKVPNGDCKTFQGPNCPATCGRVLPDGKRAVVGYEDGTIRIWDLKQGSPIHVLKGTEGHQGPLTCVAANQDGSLILTGSVDCQAKLVSATTGKVVGVFRPETVASQPSLGEGEESESNSVESLGFCSVMPLAAVGYLDGTLAIYDLATQTLRHQCQHQSGIVQLLWEAGTAVVYTCSLDGIVRLWDARTGRLLTDYRGHTAEILDFALSKDASLVVTTSGDHKAKVFCVQRPDR
- tritiated heparin binding, cpm above background per umole protein, with competition by equal amount of cold heparin (1:1 unlabeled heparin, 3 assays, S.D.): 2139 cpm/umole protein
- tritiated heparin binding, cpm above background per umole protein, without competition (6 assays, S.D.): 9134+/-2699 cpm/umole protein
- tritiated heparin binding, times more than background (BSA) (approx. 15 ug protein on Immobilon-P, 6 assays): 2.2+/-0.4 times
